One assay concerns the target T1, purified SEMA7A (Homo sapiens, UniProt O75326).
T1 construct: Fc; made in house; host or cells: cells stably transfected with SEMA7A-Fc plasmid (human breast cancer cells); purified from medium
T1 sequence (O75326 45-648 limits assumed): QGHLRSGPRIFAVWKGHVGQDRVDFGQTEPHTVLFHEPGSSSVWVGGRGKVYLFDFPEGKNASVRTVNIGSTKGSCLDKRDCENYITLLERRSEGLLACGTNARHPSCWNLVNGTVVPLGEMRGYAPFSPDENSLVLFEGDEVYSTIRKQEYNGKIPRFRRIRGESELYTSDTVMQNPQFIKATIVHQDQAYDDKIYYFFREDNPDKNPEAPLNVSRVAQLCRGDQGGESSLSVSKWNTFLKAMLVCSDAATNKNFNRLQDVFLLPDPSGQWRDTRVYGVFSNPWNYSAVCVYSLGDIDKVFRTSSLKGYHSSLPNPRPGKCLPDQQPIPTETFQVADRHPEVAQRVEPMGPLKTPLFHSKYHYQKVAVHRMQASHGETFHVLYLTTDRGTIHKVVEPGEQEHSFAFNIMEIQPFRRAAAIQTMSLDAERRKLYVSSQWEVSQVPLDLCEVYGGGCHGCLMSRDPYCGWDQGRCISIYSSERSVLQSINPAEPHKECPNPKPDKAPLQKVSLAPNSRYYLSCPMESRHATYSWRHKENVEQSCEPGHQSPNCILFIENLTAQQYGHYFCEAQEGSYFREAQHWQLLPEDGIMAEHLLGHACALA
Description: ELISA binding to purified SEMA7A. Particulars: serial dilution. As for the experimental part: The MultiSorp ELISA 96 well ELISA plate (Thermo Scientific) was coated with 100 μl per well of 50 μg/ml of purified SEMA7A in Coating Buffer A (Thermo Scientific CB07100) and allowed to attach overnight with gentle rocking at 4 degrees. For the peptide competition, half of the antibody was incubated in an Eppendorf tube overnight at a ratio of 1:10 with the SEMA7A peptide on a rotator at 4 degrees. The plate was washed with 200 μl per well of 1× wash buffer (Thermo Scientific WB01) and blocked with 200 μl 1× assay buffer (Thermo Scientific DS98200) for 2 hours and room temp with gentle rocking. 1× assay buffer was removed and a 200 μl serial dilution of SMEA7A mAb in 1× assay buffer was made from columns 1 through 9, with column 10-12 getting 1× assay buffer only. The plate was incubated overnight with gentle rocking at 4 degrees. The plate was washed twice with 200 μl of 1× wash buffer. 100 μl of 200 ng/ml Goat Anti-Mouse IgG HRP (Abcam 97040) in 1× assay buffer was added to columns 1-11, with column 12 getting 1× assay buffer only. The plate was incubated for 2 hours with gentle rocking at room temp. The plate was washed four times with 200 μl 1× wash buffer. 150 μl SuperSignal Femto for ELISA (Thermo Scientific) was mixed 1:1 added to each well and mixed for 1 min and then left to rock at room temperature for 30 minutes. The absorbance was read at 425 nm on a microplate reader.

In a further assay the test system is 66cl4 Sema7A DDK cells. Description: IncuCyte percent confluence time course. The format is cell-based, mouse. As for the experimental part:
For proliferation assays, cells were plated at 2000 cells per well of a 96-well dish. Four pictures of different regions in each well were taken every four hours for 48 h using an IncuCyte ZOOM (Essen BioScience, Ann Arbor, MI, USA). Percent confluence was determined using the IncuCyte ZOOM software (Essen BioScience). 66cl4 Sema7A DDK cells were plated in a 96-well plate in triplicate at 1,500 cells/well. They sat down over 24 hours and then were treated with 1000 nM IgG control, 10 nM SmAbH1, 100 nM SmAbH1, 200 nM SmAbH1, 500 nM SmAbH1, or 1000 nM SmAbH1. The plate was promptly transferred to the IncuCyte where photos were taken and analyzed every 4 hours for 7 days. For additional treatment studies in MCF7, TC11 and SSM2 cells ([…]) were plated in a 24-well plate in complete media and allowed to sit down over 24 hours. At 24 hours after plating, cells were treated with 500 nM IgG control, 500 nM SmAbH1, 8 nM Fulvestrant or the combination. The plate was incubated at 37 C for 48 hours, then fixed with 10% NBF and stained with crystal violet.

The next assay deals with SEMA7A isoforms. The assay is described as follows: Western blot recognition of SEMA7A isoforms. It counts as binding. A general note: A western blot detects proteins with antibodies after separation by electrophoresis.
Another assay deals with SEMA7A expressing cells. The assay is described as follows: Mammosphere formation and cell death in vitro. The format is cell-based. As for the experimental part: In another exemplary method, it was observed that SEMA7A was sufficient to promote stem cell phenotypes, including mammosphere formation, anchorage independent growth and resistance to chemotherapy, which is a property of cancer stem cells. Finally. SEMA7A expressing cells display increased functions and markers of cancer stem cells.
MCF10A and MCF12A cells were labeled with CellTrace Violet (ThermoFisher: #C34557) for 20 min at 37° C., according to the manufacturer's instructions. A sample of labeled cells was analyzed by flow cytometry to determine labeling efficiency and fluorescent intensity at time of seeding. Single cells were seeded at a density of 4000 cells/well in μltra-low attachment 24-well plates to induce mammosphere formation. Cells were cultured in normal culture media for 7 days and were subsequently counted, dissociated enzymatically in Accutase, (Stem Cell Technologies, Vancouver, Canada: #07922), and analyzed by flow cytometry. See flow cytometry methods for detailed information.

Assay [1] concerns MCF10ADCIS GFP human breast cancer cells. Description: DCIS mouse model, tumor growth and invasion. The format is in vivo. Particulars: IP every third day from day 21. As for the experimental part:
DCIS model: Female SHO mice, aged 6-8 weeks old, are injected with 250,000 MCF10ADCIS GFP human breast cancer cells into both #4 mammary fat pads, then palpated and measured three times a week with digital calipers and tumor visualization is aided by use of the illumatool light source with GFP filter so we can accurately measure tumors. Treatment with SmAb started at day 21 post injection. SmAb treatment is given by IP injection every third day. Weights are taken every treatment day and mice are monitored for weight loss and other health/behavior changes.

The record followed here is patent US20250206839A1, “METHODS, COMPOSITIONS AND USES FOR SEMA7A MONOCLONAL ANTIBODIES” (THE REGENTS OF THE UNIVERSITY OF COLORADO, A BODY CORPORATE, priority 2022, published 2025).

Entries after “also recorded” stand apart in the source; their conditions may differ.

B1: SmAbH1: mouse monoclonal antibody against SEMA7A generated using the 10-mer immunizing peptide … (SEQ ID NO: 2) (antibody, V domains shown)
VH: QVKLQESGTVLARPGASVKMSCKASVYSFTSYWMHWVKQRPGQGLEWIGAIYPGNSDTSYNQKFKGKAKLTAVTSASTAYMELSSLTNEDSAVYYCTRGGAPTMITAYYAMDYWGQGTSVTVSS
VL: DIQMTQTTSSLSASLGDRVTISCRASQDISNYLNWYQQKPDGTVKLLIYYTSRLHSGVPSRFSGSGSGTDYSLTISNLEQEDIATYFCQQGNTLPWTFGGGTKLEIKR
B1: in the assay with purified SEMA7A, the “binding to purified SEMA7A” value is listed as “bound to purified SEMA7A in a dose dependent manner”. Further, the “viability / percent confluence over time” value with 66cl4 Sema7A DDK cells (66cl4, 10-1000 nM SmAbH1, 7 days) is “decreased viability; also recorded: dose dependency”. Moreover, the “decrease of cellular confluence compared to commercially available SEMA7A directed antibodies” value with 66cl4 Sema7A DDK cells (66cl4 DDK and DDK SEMA7A cells, vs SC-374432 and Ab23578) is on record as “greater than commercially available”. Moreover, in the assay on SEMA7A isoforms, the “recognition of SEMA7A isoforms” value is recorded as “recognition of all three isoforms of SEMATA”. In addition, in the assay on SEMA7A expressing cells, the cell death entry is recorded as “induce cell death” and the mammosphere formation result is “reduce mammosphere formation”. Also, the “tumor growth and invasion of ductal carcinoma in situ (DCIS) lesions” value in assay [1] is “block or inhibit tumor growth and invasion”.
